This experiment addresses T1, recombinant human PD-1-Fc (GenScript) (human, UniProt Q15116 25-167, limits assumed).
T1 construct: Bought reagent (GenScript); not shown: Fc part of the bought fusion
The experiment can be described thus: sandwich ELISA; PD-1-Fc coated (200 ng/mL), purified trap protein 0-40 µg/mL, anti-His-tag-HRP detection. The procedure:
FIG. 2A-2E depict characterization of trap protein. […] (2D and 2E) Binding ability of trap to PD-1 and TGF-β using sandwich ELISA, wherein purified trap protein was added to PD-1-Fc-coated or TGF-β-coated plates, followed by detection by anti-His-tag antibody conjugated with HRP.
The binding ability of trap protein to PD-1 and TGFβ protein was evaluated by sandwich ELISA, wherein recombinant human PD-1-Fc (GenScript) or […] protein (R&D Systems) (200 ng/mL) was coated on the plates, followed by purified trap protein (0-40 μg/mL) detected by anti-6×HIS TAG® antibody-HRP (1:500 diluted, Abcam).
(An ELISA detects its analyte on a solid surface through an enzyme-linked reagent.)

T1 sequence (Q15116 25-167 limits assumed): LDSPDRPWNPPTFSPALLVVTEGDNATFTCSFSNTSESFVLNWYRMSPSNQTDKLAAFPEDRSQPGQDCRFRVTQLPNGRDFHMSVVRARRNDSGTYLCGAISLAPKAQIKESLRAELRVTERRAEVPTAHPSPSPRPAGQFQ

B1: trap protein labeled with a His-tag (anti-PD-1 scFv fused to a TGF-β-binding sequence of TGF-βRII, produced in transfected 293T cells) (other, not shown: small tags and cut ends)
chain: DIVLTQSPATLSLSPGERATLSCRASKSVSTSGFNYMHWYQQKPGQAPRLLIFLASNLASGVPARFSGSGSGTDFTLTISSLEPEDFAVYYCQHGRELPLTFGQGTKLEIGGGGSGGGGSGGGGSQVQLVQSGAEVKKPGASVKVSCKASGYTFTNYYMYWVRQAPGQGLEWIGGINPSNGGTNFNEKFKNKATMTVDKSTSTAYMELSSLRSEDTAVYYCTRRDYNYDGGFDYWGQGTLVTVSSGGGGSGGGGSTIPPHVQKSVNNDMIVTDNNGAVKFPQLCKFCDVRFSTCDNQKSCMSNCSITSICEKPQEVCVAVWRKNDENITLETVCHDPKLPYHDFILEDAASPKCIMKEKKKPGETFFMCSCSSDECNDNIIFSEEYNTSNPD
notes: Western blot gives 56 kDa; The text says the scFv derives from antibody 5C4; also called bifunctional trap protein; purified trap protein
Turning to B1, the binding result was “binds”.

The record behind these values is patent publication US20230310601A1 (UNIVERSITY OF SOUTHERN CALIFORNIA, published 2023).
